Laboratory results published in IntAct's records for PubMed 21282611.

B1: WD-40 repeat-containing protein MSI4 (Arabidopsis thaliana (Mouse-ear cress)), O22607 (parent)
chain: MESDEAAAVSPQATTPSGGTGASGPKKRGRKPKTKEDSQTPSSQQQSDVKMKESGKKTQQSPSVDEKYSQWKGLVPILYDWLANHNLVWPSLSCRWGPQLEQATYKNRQRLYLSEQTDGSVPNTLVIANCEVVKPRVAAAEHISQFNEEARSPFVKKYKTIIHPGEVNRIRELPQNSKIVATHTDSPDVLIWDVETQPNRHAVLGAANSRPDLILTGHQDNAEFALAMCPTEPFVLSGGKDKSVVLWSIQDHITTIGTDSKSSGSIIKQTGEGTDKNESPTVGPRGVYHGHEDTVEDVAFSPTSAQEFCSVGDDSCLILWDARTGTNPVTKVEKAHDADLHCVDWNPHDDNLILTGSADNTVRLFDRRKLTANGVGSPIYKFEGHKAAVLCVQWSPDKSSVFGSSAEDGLLNIWDYDRVSKKSDRAAKSPAGLFFQHAGHRDKVVDFHWNASDPWTIVSVSDDCETTGGGGTLQIWRMSDLIYRPEEEVVAELEKFKSHVMTCASKP
partner: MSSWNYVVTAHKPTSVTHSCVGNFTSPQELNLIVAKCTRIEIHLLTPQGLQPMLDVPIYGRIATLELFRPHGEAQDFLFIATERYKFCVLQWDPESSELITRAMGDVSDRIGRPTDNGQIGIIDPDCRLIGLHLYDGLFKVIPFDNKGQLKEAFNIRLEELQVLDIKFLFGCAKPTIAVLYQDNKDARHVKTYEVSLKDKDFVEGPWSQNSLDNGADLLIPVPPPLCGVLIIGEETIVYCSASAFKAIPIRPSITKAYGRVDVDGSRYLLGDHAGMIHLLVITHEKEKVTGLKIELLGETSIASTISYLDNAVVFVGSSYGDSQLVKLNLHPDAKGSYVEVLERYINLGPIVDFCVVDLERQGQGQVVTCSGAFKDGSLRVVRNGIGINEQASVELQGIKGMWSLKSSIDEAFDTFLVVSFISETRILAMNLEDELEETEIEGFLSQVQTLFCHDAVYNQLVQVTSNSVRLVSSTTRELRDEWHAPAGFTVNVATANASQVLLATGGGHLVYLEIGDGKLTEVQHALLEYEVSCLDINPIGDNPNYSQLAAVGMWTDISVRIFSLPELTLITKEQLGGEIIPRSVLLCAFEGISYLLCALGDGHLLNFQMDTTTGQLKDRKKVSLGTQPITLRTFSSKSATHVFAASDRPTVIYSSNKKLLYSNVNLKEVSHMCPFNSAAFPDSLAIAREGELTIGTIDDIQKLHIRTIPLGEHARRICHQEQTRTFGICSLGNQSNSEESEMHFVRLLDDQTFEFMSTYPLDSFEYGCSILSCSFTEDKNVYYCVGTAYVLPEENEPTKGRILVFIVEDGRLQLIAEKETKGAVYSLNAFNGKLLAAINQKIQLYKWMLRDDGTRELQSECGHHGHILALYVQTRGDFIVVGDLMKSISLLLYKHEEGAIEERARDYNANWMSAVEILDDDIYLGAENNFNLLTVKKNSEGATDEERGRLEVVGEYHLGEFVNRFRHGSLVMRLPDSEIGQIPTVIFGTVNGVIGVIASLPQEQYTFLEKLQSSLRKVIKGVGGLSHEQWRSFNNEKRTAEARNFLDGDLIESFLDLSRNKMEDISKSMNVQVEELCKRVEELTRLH
B2: WD-40 repeat-containing protein MSI4 (Arabidopsis thaliana (Mouse-ear cress)), O22607 (parent)
chain: B1 chain
partner: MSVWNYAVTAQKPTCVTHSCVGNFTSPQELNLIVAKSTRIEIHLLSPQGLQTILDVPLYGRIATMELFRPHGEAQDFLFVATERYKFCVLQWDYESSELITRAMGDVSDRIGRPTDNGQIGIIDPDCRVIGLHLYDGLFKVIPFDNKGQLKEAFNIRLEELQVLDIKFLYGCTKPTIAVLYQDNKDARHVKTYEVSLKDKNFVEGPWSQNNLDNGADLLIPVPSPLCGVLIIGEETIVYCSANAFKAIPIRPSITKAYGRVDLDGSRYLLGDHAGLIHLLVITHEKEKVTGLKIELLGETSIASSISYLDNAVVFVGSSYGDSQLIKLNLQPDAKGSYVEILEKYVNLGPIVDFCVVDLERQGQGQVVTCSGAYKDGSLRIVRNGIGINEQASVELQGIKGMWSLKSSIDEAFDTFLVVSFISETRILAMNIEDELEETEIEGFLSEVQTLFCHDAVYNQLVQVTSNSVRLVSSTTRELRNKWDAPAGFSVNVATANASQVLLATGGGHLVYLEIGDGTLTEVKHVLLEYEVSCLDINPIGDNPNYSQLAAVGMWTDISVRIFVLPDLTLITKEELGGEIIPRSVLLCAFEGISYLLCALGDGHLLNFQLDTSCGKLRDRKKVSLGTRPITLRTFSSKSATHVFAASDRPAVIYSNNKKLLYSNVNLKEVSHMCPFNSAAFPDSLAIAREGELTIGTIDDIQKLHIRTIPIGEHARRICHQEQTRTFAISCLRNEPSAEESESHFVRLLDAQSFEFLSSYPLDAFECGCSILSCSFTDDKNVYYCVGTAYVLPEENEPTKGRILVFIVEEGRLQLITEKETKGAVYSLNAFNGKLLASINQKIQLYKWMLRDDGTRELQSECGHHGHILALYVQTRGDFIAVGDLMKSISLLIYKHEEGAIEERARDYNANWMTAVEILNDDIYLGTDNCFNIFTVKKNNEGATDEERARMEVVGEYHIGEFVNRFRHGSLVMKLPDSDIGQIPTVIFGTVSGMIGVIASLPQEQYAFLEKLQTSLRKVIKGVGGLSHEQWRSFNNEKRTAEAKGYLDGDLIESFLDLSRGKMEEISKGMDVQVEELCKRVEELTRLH

Variants of: B1
Settings: with ddb1a_arath DDB1A

Row | effect of a mutation on the interaction | Variant
1 | decreasing interaction strength | R323H

Variants of: B2
Settings: with ddb1b_arath DDB1B

Row | effect of a mutation on the interaction | Variant
2 | decreasing interaction strength | R323H
